Experimental data published in US20220289816A1, “IMMUNOTHERAPY WITH B*07 RESTRICTED PEPTIDES AND COMBINATION OF PEPTIDES AGAINST CANCERS AND RELATED METHODS” (Immatics Biotechnologies GmbH, priority 2018, published 2022).

molecular target: HLA-B*07 (Homo sapiens, UniProt P01889); experiment: MHC binding assay (UV-ligand exchange, ELISA of stabilized MHC complexes); conditions: peptide exchange yield on HLA-B*07, UV-ligand exchange
Procedure, shortened: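 Peptide–MHC complexes were made by UV-ligand exchange, in which a UV-cleavable peptide is replaced by the test peptide. Exchange yield was measured by ELISA of stabilized complexes on streptavidin-coated plates, using HRP anti-β2m detection (1 h, 37 °C), TMB substrate and absorbance at 450 nm.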

| Substance | Peptide exchange |
| --- | --- |
| 245 (GPVPSPLAL; listed as Homo sapiens) [compound 245] | ++++ (>75% = ++++) |
| 36 (RPFSREMDL; listed as Homo sapiens) [compound 36] | +++ (>50 = +++) |
| 256 (SPVPSHWMVAL; listed as Homo sapiens) [compound 256] | ++++ (>75% = ++++) |
| 75 (HVRPQTNCI; listed as Homo sapiens) [compound 75] | +++ (>50 = +++) |
| 39 (QPRPSSEKI; listed as Homo sapiens) [compound 39] | +++ (>50 = +++) |
| 375 (LPRGVLEGL; listed as Homo sapiens) [compound 375] | ++++ (>75% = ++++) |
| 450 (SAAARALLP; listed as Homo sapiens) [compound 450] | + (>10% = +) |
| 14 (AVHEIGHSL; listed as Homo sapiens) [compound 14] | +++ (>50 = +++) |
| 340 (APEPRAALL; listed as Homo sapiens) [compound 340] | +++ (>50 = +++) |
| 280 (LPRAFLQSL; listed as Homo sapiens) [compound 280] | ++++ (>75% = ++++) |
| 194 (HPNKIKASL; listed as Homo sapiens) [compound 194] | +++ (>50 = +++) |
| 98 (FPCSALLACF; listed as Homo sapiens) [compound 98] | ++++ (>75% = ++++) |
| 329 (QPANFIVLL; listed as Homo sapiens) [compound 329] | +++ (>50 = +++) |
| 199 (SPFWIHQA; listed as Homo sapiens) [compound 199] | ++ (>20% = ++) |
| 77 (QPRLVPGETL; listed as Homo sapiens) [compound 77] | ++++ (>75% = ++++) |
| 324 (LPAPLRISL; listed as Homo sapiens) [compound 324] | ++++ (>75% = ++++) |
| 161 (ASKILETSL; listed as Homo sapiens) [compound 161] | ++ (>20% = ++) |
| 224 (SPIIHSILL; listed as Homo sapiens) [compound 224] | ++++ (>75% = ++++) |
| 381 (APRPRLLLL; listed as Homo sapiens) [compound 381] | +++ (>50 = +++) |
| 222 (MLKTTLTAF; listed as Homo sapiens) [compound 222] | + (>10% = +) |
| 279 (APADEPRTVL; listed as Homo sapiens) [compound 279] | +++ (>50 = +++) |

| Substance | Peptide exchange |
| --- | --- |
| 28 (LPAPTSLVL; listed as Homo sapiens) [compound 28] | ++++ (>75% = ++++) |
| 22 (LPQLKPAL; listed as Homo sapiens) [compound 22] | ++++ (>75% = ++++) |
| 235 (AQNPAGTAL; listed as Homo sapiens) [compound 235] | + (>10% = +) |
| 318 (TPISNTGVL; listed as Homo sapiens) [compound 318] | ++++ (>75% = ++++) |
| 115 (KTKSLAQQL; listed as Homo sapiens) [compound 115] | +++ (>50 = +++) |
| 170 (APEGKRLGF; listed as Homo sapiens) [compound 170] | ++++ (>75% = ++++) |
| 226 (APGGSSRSSL; listed as Homo sapiens) [compound 226] | +++ (>50 = +++) |
| 101 (KPGLPGLK; listed as Homo sapiens) [compound 101] | + (>10% = +) |
| 490 (APRGPAQGEAA; listed as Homo sapiens) [compound 490] | ++++ (>75% = ++++) |
| 150 (APLHGGGSL; listed as Homo sapiens) [compound 150] | +++ (>50 = +++) |
| 345 (SAAPPGASL; listed as Homo sapiens) [compound 345] | +++ (>50 = +++) |
| 65 (FPNVYSTLVL; listed as Homo sapiens) [compound 65] | ++++ (>75% = ++++) |
| 301 (FPAFLEAM; listed as Homo sapiens) [compound 301] | +++ (>50 = +++) |
| 479 (APHAGGALL; listed as Homo sapiens) [compound 479] | ++++ (>75% = ++++) |
| 238 (LPRAGGAFLM; listed as Homo sapiens) [compound 238] | ++++ (>75% = ++++) |
| 253 (MPVDSFNSML; listed as Homo sapiens) [compound 253] | ++++ (>75% = ++++) |
| 106 (APFHIDRLF; listed as Homo sapiens) [compound 106] | +++ (>50 = +++) |
| 234 (HPRAPGEQQRL; listed as Homo sapiens) [compound 234] | +++ (>50 = +++) |
| 475 (IPLEIQKL; listed as Homo sapiens) [compound 475] | + (>10% = +) |
| 34 (APMAPGRSP; listed as Homo sapiens) [compound 34] | +++ (>50 = +++) |
| 134 (VAAAARLTL; listed as Homo sapiens) [compound 134] | +++ (>50 = +++) |

| Substance | Peptide exchange |
| --- | --- |
| 489 (WPNHIMLVL; listed as Homo sapiens) [compound 489] | ++++ (>75% = ++++) |
| 114 (FVPPSGPSNPM; listed as Homo sapiens) [compound 114] | ++ (>20% = ++) |
| 346 (IPMPRITWL; listed as Homo sapiens) [compound 346] | ++++ (>75% = ++++) |
| 187 (APPPPPPPF; listed as Homo sapiens) [compound 187] | ++++ (>75% = ++++) |
| 76 (KPKVESQAL; listed as Homo sapiens) [compound 76] | ++++ (>75% = ++++) |
| 158 (SVPVATVEL; listed as Homo sapiens) [compound 158] | ++ (>20% = ++) |
| 286 (APARPAAAF; listed as Homo sapiens) [compound 286] | ++++ (>75% = ++++) |
| 351 (SPYADIIPSA; listed as Homo sapiens) [compound 351] | +++ (>50 = +++) |
| 125 (SPAKQFNIY; listed as Homo sapiens) [compound 125] | ++ (>20% = ++) |
| 299 (SPFSGGPVSF; listed as Homo sapiens) [compound 299] | ++++ (>75% = ++++) |
| 492 (IPFSVDEI; listed as Homo sapiens) [compound 492] | + (>10% = +) |
| 219 (VPHTGRYTCL; listed as Homo sapiens) [compound 219] | +++ (>50 = +++) |
| 303 (RPPPPCIAL; listed as Homo sapiens) [compound 303] | ++++ (>75% = ++++) |
| 448 (TVYGEPRKL; listed as Homo sapiens) [compound 448] | ++ (>20% = ++) |
| 282 (AVRLPTPNL; listed as Homo sapiens) [compound 282] | ++++ (>75% = ++++) |
| 264 (APRPGNWIL; listed as Homo sapiens) [compound 264] | +++ (>50 = +++) |
| 176 (QPLDICHSF; listed as Homo sapiens) [compound 176] | ++++ (>75% = ++++) |
| 261 (SPSTSRTPL; listed as Homo sapiens) [compound 261] | +++ (>50 = +++) |
| 201 (LPIARVLTV; listed as Homo sapiens) [compound 201] | ++++ (>75% = ++++) |
| 292 (LPMTHRLQL; listed as Homo sapiens) [compound 292] | +++ (>50 = +++) |
| 190 (RLAHVRARL; listed as Homo sapiens) [compound 190] | +++ (>50 = +++) |

| Substance | Peptide exchange |
| --- | --- |
| 266 (KPYEGRVEI; listed as Homo sapiens) [compound 266] | ++++ (>75% = ++++) |
| 117 (IPHQRSSL; listed as Homo sapiens) [compound 117] | ++++ (>75% = ++++) |
| 376 (FPQVGRTAL; listed as Homo sapiens) [compound 376] | ++++ (>75% = ++++) |
| 362 (KPMLPPAAF; listed as Homo sapiens) [compound 362] | +++ (>50 = +++) |
| 74 (VPVSHPVL; listed as Homo sapiens) [compound 74] | ++++ (>75% = ++++) |
| 181 (LPVSPARAL; listed as Homo sapiens) [compound 181] | +++ (>50 = +++) |
| 333 (SVLPRALSL; listed as Homo sapiens) [compound 333] | +++ (>50 = +++) |
| 102 (MAGPAIHTAPM; listed as Homo sapiens) [compound 102] | ++ (>20% = ++) |
| 293 (FPYDKPLIM; listed as Homo sapiens) [compound 293] | ++++ (>75% = ++++) |
| 182 (RPLPVSPARAL; listed as Homo sapiens) [compound 182] | +++ (>50 = +++) |
| 243 (MARTGGMVVI; listed as Homo sapiens) [compound 243] | ++ (>20% = ++) |
| 208 (RNRQVATAL; listed as Homo sapiens) [compound 208] | +++ (>50 = +++) |
| 143 (YPMIPPAQL; listed as Homo sapiens) [compound 143] | +++ (>50 = +++) |
| 157 (RPVTGSVC; listed as Homo sapiens) [compound 157] | ++++ (>75% = ++++) |
| 72 (APCNGNVAV; listed as Homo sapiens) [compound 72] | +++ (>50 = +++) |
| 321 (QPQQPGFFL; listed as Homo sapiens) [compound 321] | +++ (>50 = +++) |
| 191 (KPKAVKPKAA; listed as Homo sapiens) [compound 191] | ++++ (>75% = ++++) |
| 307 (RPHQKGWLSI; listed as Homo sapiens) [compound 307] | +++ (>50 = +++) |
